A short description of test [1]: Sabutoclax and BI-97D6 in combination with MDA-7/IL-24. To be noted: combined with MDA-7/IL-24; earlier observation referred to. As to the method: To test a multi-target approach for treatment of prostate cancer bone metastases, experiments were conducted to target Mcl-1 inhibition and investigate the effects on NG-mda-7/IL-24 efficacy. […] In addition to these inhibitors, three commercially available targeted inhibitors were evaluated to determine potential synergistic effects with MDA-7/IL-24. […] Next, the therapeutic effect of MDA-7/IL-24 protein in combination with BI-97D6 was tested, in male athymic nude mice injected by the intracardiac route with human prostate cancer PC3-ML cells, resulting in bone metastases.

In another test the test system is CD11b+Gr-1+ MDSCs. To be noted: single administration 5 mg/kg or 20 mg/kg i.p., 24 hours, spleen; FIG. 33.
In test [2] the test system is human prostate cancer PC3-ML cells. In words: PC3-ML intracardiac bone metastasis model in athymic nude mice. Format: in vivo. To be noted: single agent, versus control group. As for the experimental part:
To test a multi-target approach for treatment of prostate cancer bone metastases, experiments were conducted to target Mcl-1 inhibition and investigate the effects on NG-mda-7/IL-24 efficacy. Using NMR (nuclear magnetic resonance) and computational biology, two Mcl-1 inhibitors were identified (Sabutoclax and BI-97D6) and their activity was validated in immune competent mice in combination with MDA-7/IL-24. In addition to these inhibitors, three commercially available targeted inhibitors were evaluated to determine potential synergistic effects with MDA-7/IL-24. The three inhibitors were UMI-77 (showing selectivity to Mcl-1 over other members of the Bcl-2 family), Marinopyrrole A (selective inhibitor of Mcl-1), and A-1210477. […] Mcl-1 expression was elevated by 1.7-fold in RM1-BM (RM1-BM cells selected for enhanced metastasis to bone) as compared to RM1 cells, indicating functional relevance of Mcl-1 in this metastatic process. […] This further supported the cancer-specificity of specific Mcl-1 inhibitors. Next, the therapeutic effect of MDA-7/IL-24 protein in combination with BI-97D6 was tested, in male athymic nude mice injected by the intracardiac route with human prostate cancer PC3-ML cells, resulting in bone metastases.

Test [3] concerns prostate cancer bone metastases (RMI-Luc cells). In words: RM1-Luc bone metastases, OT-I T cells with or without MDA-7/IL-24 protein. The following applies: OT-I in combination with protein i.v. 5 mg/kg body weight, 3 times; FIG. 29. Format: in vivo, C57BL/6 mice. As to the method:
C57BL/6 mice established with experimental bone metastases via intratibial injection of ovalbumin-positive CaP RM1-Luc cells expressing luciferase were treated with OVA-specific T cells (OT-I) alone or in combination with recombinant MDA-7/IL-24 protein i.v. (5 mg/kg body weight, 3 times). Development of bone lesions was monitored by BLI. Luciferase intensity was quantified and is presented graphically.
C57BL/6 mice established with experimental bone metastases via intra-tibial injection of ovalbumin-positive prostate cancer RMI-Luc cells expressing luciferase were treated with OVA-specific T cells (OT-I) alone or in combination with recombinant MDA-7/IL-24 protein intravenously (5 mg/kg body weight, 3 times). Development of bone lesions was monitored by bioluminescent imaging (BLI) (FIG. 29 left panel). Luciferase intensity was quantified and is presented graphically (FIG. 29 graph).

The subject of the next test is breast cancer cells. In words: ER stress response and surface calreticulin in breast cancer cells. Type of test: cell-based, mouse. The source says:
FIGS. 41A-41C show example images illustrating that MDA-7/IL-24 therapy enhances immunogenicity of mouse mammary tumors. FIG. 41A: immunogenic BCa cell death induced by MDA-7/IL-24 therapy. BALB/c mice were immunized with irradiated, Ad.mda-7 (1,2) or Ad.null (3,4) infected 4T1 cells (MOI=1), challenged with live 4T1 cells. The images were taken two weeks' post-tumor challenge. […] FIG. 41C: MDA-7/IL-24 therapy triggers the surface presence of CRT, assessed by immunofluorescence staining (left) and immunoblotting analysis of plasma membrane or cytosolic fractions (right).
Immunogenic breast cancer cell death was induced by MDA-7/IL-24 therapy. BALB/c mice were immunized with irradiated, Ad.mda-7 (mouse 1 and 2) or Ad.null (mouse 3 and 4) infected 4T1 cells (MOI=1), and then challenged with live 4T1 cells. The images were taken two weeks' post-tumor challenge.

Another test concerns CD8+ T cells. In words: 3H-thymidine incorporation in stimulated CD8+ T cells. Format: cell-based. To be noted: anti-CD3/CD28 stimulation, 20 ng/ml, p<0.05; FIG. 31A. As for the experimental part:
(§1) FIGS. 31A-31B show example results illustrating that MDA-7/IL-24 promotes T cell expansion and activation. FIG. 31A: CD8+ T cells were stimulated with anti-CD3/CD28 antibodies in the presence or absence of purified MDA-7/IL-24 protein (20 ng/ml). Cell proliferation was measured using ^3H-thymidine (TdR) incorporation assays. p<0.05. FIG. 31B: C57BL/6 mice were injected i.v. with MDA-7/IL-24 protein (10 μg) or PBS. 48 h later, lymph node cells were assessed for IFN-γ-producing CD8+ T cells by intracellular staining.
(§2) In subsequent experiments, CD8^+ T cells were stimulated with anti-CD3/CD28 antibodies in the presence or absence of purified MDA-7/IL-24 protein (20 ng/ml). Cell proliferation was measured using ^3H-thymidine (TdR) incorporation assays. p<0.05. […] C57BL/6 mice were injected intravenously with MDA-7/IL-24 protein (10 μg) or PBS; 48 hours later, lymph node cells were assessed for IFN-γ-producing CD8^+ T cells by intracellular staining.

Test [4] deals with IFN-γ-producing CD8+ T cells. In words: IFN-γ-producing CD8+ T cells in lymph nodes after i.v. protein. Type of test: in vivo, C57BL/6 mice. To be noted: 10 μg i.v., 48 hours, lymph node cells; FIG. 31B. As to the method:
as §1, §2

The record followed here is patent US12325863B2, “MDA-7/IL-24 secretory variants and methods of use” (Virginia Commonwealth University, priority 2018, dated 2025).

Procedure for CD11b+Gr-1+ MDSCs: 24 hrs. later, splenic CD11b+Gr-1+ MDSCs were assessed by FACS.
Twenty-four (24) hours later, splenic CD11b^+Gr-1^+ MDSCs were assessed by FACS.

Turning to `Cc1cc2c(C(=O)NC[C@H](C)c3ccccc3)c(O)c(O)cc2c(O)c1-c1c(C)cc2c(C(=O)NC[C@H](C)c3ccccc3)c(O)c(O)cc2c1O` [BI-97C1, Sabutoclax], the antitumor synergy entry in test [1] is reported as “antitumor synergy”. In addition, the “frequency of CD11b+Gr-1+ MDSCs” value in the test on CD11b+Gr-1+ MDSCs is recorded as “substantially reduced the frequency of CD11b^+Gr-1^+ MDSCs”.

B1: MDA-7/IL-24: Melanoma differentiation associated gene-7/Interleukin-24, secreted protein of the IL-10 family (protein)
chain: QEFHFGPCQVKGVVPQKLWEAFWAVKDTMQAQDNITSARLLQQEVLQNVSDAESCYLVHTLLEFYLKTVFKNYHNRTVEVRTLKSFSTLANNFVLIVSQLQPSQENEMFSIRDSAHRRFLLFRRAFKQLDVEAALTKALGEVDILLTWMQKFYKL
B1: in test [2], the bone metastases entry is “statistically significant inhibition of bone metastases”. In test [3], the “therapeutic potency of ATT on bone metastases (BLI)” value was “significantly enhanced the therapeutic potency of ATT”. For the same molecule, the “surface calreticulin (immunofluorescence, immunoblotting)” value in the test with breast cancer cells (FIG. 41C) is “triggers the surface presence of calreticulin (CRT)”. In the test with breast cancer cells (GRP78/BiP, GRP170, FIG. 41B), the ER stress response entry was “upregulation of ER-resident chaperones”. Besides, the “T cell proliferation (3H-thymidine incorporation)” value with CD8+ T cells is given as “significantly enhanced the proliferation of T cells”. Moreover, the “frequency of IFN-γ-expressing CD8+ T cells” value in test [4] is “increased the frequency of IFN-γ-expressing CD8^+ T cells”.
